Positions count from the first letter of the chain named. Names may count otherwise.
T1: SUMO*-GFP (engineered SUMO 2F4, Smt3 R64T R71E, fused to GFP)
T1 chain: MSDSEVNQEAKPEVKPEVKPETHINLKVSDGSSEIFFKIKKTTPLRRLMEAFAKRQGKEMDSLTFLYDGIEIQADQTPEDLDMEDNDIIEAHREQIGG

B1: ULP1 mutant 1.38 (residues 451-455: S T I I A) (protein)
chain: LVPELNEKDDDQVQKALASRENTQLMNRDNIEITVRDFKTLAPRRWLNSTIIAFFMKYIEKSTPNTVAFNSFFYTNLSERGYQGVRRWMKRKKTQIDKLDKIFTPINLNQSHWALGIIDLKKKTIGYVDSLSNGPNAMSFAILTDLQKYVMEESKHTIGEDFDLIHLDCPQQPNGYDCGIYVCMNTLYGSADAPLDFDYKDAIRMRRFIAHLILTDALK
B2: ULP1 mutant 1.48 (residues 451-455: S T I I M) (protein)
chain: B1 chain with A53M
B3: ULP1 (wild-type SUMO protease 1) (protein)
chain: B1 chain with S49D, A53E
B4: ULP1 mutant 2.3 (residues 451-455: A M I I A) (protein)
chain: B1 chain with S49A, T50M
B5: SUMO* protease 1 (ULP1 mutant 2.2; D451S, T452G, E455S) (protein)
chain: MGLVPELNEKDDDQVQKALASRENTQLMNRDNIEITVRDFKTLAPRRWLNSGIISFFMKYIEKSTPNTVAFNSFFYTNLSERGYQGVRRWMKRKKTQIDKLDKIFTPINLNQSHWALGIIDLKKKTIGYVDSLSNGPNAMSFAILTDLQKYVMEESKHTIGEDFDLIHLDCPQQPNGYDCGIYVCMNTLYGSADAPLDFDYKDAIRMRRFIAHLILTDALKLEHHHHHH

Columns and labels:
[1] = target: T1, SUMO*-GFP (engineered SUMO 2F4, Smt3 …)
[2] = target: SMT3-GFP (wild-type SUMO-GFP fusion) [SUMO: Q12306]
[3] = target: SUMO mutant 1A3 (R64Q), GFP fusion [SUMO: Q12306]
[4] = target: SUMO mutant 1C1 (R64L), GFP fusion [SUMO: Q12306]
[5] = target: SUMO mutant 2E11 (R64F; R71E), GFP fusion [SUMO: Q12306]
[6] = target: SUMO mutant 2E4 (R64T; R71E), GFP fusion [SUMO: Q12306]

Protein | % Cleavage of SUMO* tag [1] | in vitro cleavage, protease titration (SDS-PAGE) [2] | in vitro cleavage, protease titration (SDS-PAGE) [1] | other results
B1 | 75% | – | – | –
B2 | 75% | – | – | –
B3 | 0% | ULP1 cleaves the SMT3 tag | ULP1 does not cleave SUMO* tag | % Cleavage with ULP1 [2]: 100%; in vitro cleavage (SDS-PAGE and anti-Smt3 Western blot) [2]: wild-type SUMO (Smt3) is cleaved by ULP1 and SENP2 (SUMO protease 1 and 2) in vitro; % Cleavage with ULP1 [3]: 10%; % Cleavage with ULP1 [4]: 10%; % Cleavage with ULP1 [5]: 0%; % Cleavage with ULP1 [6]: 0%; % Cleavage with ULP1 [1]: 0%; in vitro cleavage reaction [1]: Neither protease cleaved SUMO*; in vitro cleavage, protease titration [1]: incubated with increasing amounts of Ulp1 up to 1000 fold excess of the enzyme concentration required to fully cleave SUMO and still no cleavage was detected
B4 | 10% | – | – | –
B5 | 100% | SUMO* protease 1 cleaves wild type SUMO, but less efficiently than SUMO* | SUMO* protease 1 cleaves the SUMO* tag | –
